Molecular target: EGF-MMP (recombinant epidermal growth factor with N-terminal PLP reactive site AKT, polyhistidine tag and MMP cleavage site VPLSLYSG)
Test: cell-based or functional assay

Sequence of EGF-MMP (recombinant epidermal growth factor with N-terminal PLP reactive site AKT, polyhistidine tag and MMP cleavage site VPLSLYSG) (chain, as listed by the source limits assumed): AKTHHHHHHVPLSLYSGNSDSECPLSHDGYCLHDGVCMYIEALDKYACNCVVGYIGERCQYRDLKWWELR

## Recombinant, human pro-MMP-9 expressed in CHO cells, activated with amino-phenyl mercuric acetate (APMA) (from UniProt P14780 20-707) (enzyme)
  EGF released from the conjugated PCL fiber mat after 4 hours of incubation with MMP-9 (ELISA): 20 ng/mg
  EGF released from the conjugated PCL fiber mat over the first 10 minutes after the enzyme was added (ELISA) (ng EGF/mg PCL): 11

From patent US20190038796A1
